Assay results as given in the supplement of paper PMC12764529.
± gives the half width of the 95% confidence interval.

Assay: folding stability dG unfold (combined trypsin and chymotrypsin); higher = more stable
Method: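 Folding stability of de novo designed mini-proteins (<80 aa, no Cys; designed by TrROS, TrMRF, ProteinMPNN and the joint model) was measured by cDNA display proteolysis with trypsin and chymotrypsin. Each protease was used at 11 concentrations in a threefold dilution series plus a no-protease condition. K50 was inferred by Bayesian fitting of sequencing counts, and dG unfold was derived against a sequence-predicted unfolded-state K50 (Tsuboyama et al. method). Sequences shown include variable-length N-terminal GS-type padding (SAGGSAGG...) inside a display construct carrying a PA tag. Rows were kept only if the AF2 dimer inter-PAE was >15, to exclude likely homo-oligomers.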

Sequence	folding stability dG unfold [kcal/mol]
SAGGSPVVPLPPDATATLTETVKVPRVLFDEEGNELEKLEVERTVTTTYTRLPGGEVATTTTTTTESAGGSA [r2_154_JUSTAS]	< -1
SAGGSAGGSAGGKRHRIDNIEPFNNDGEKLYRIRMPGGKEQRFPVGEEFTPNGAEIEPLPSAGGSAGGSAGG [r7_931_TrROS]	< -1
SAGGSAGGSAGPKPVLLTIEVEAKPDEAEAVAKEIYEKEFPEAKDVTVETFPEKGTFRVTFGSAGGSAGGSA [r18_390_TrMRF]	< -1
SAGGSAGGSAGGPPVPYKIKSPNGRPFPVQINPDSGQIEIEFPGETRKIPLGMNWEIEPVSAGGSAGGSAGG [r7_434_TrROS]	< -1
SAGGSAGGSAGGPPPSLPYELDKKVIEKLVKYPEDKLKPVEIKEIETSLFNPLTGTWLDSAGGSAGGSAGGS [r10_248_JUSTAS]	< -1
SAGGSAGGSAGGSSAQIPFPDDGAWIMIDWDPEGRPKVKVHNPDNGEEIEFPPGAPIKISAGGSAGGSAGGS [r4_158_TrROS]	< -1
SAGGSAGGSAGGSGVKTRAGSFPDRDYTITEDPVVPGIYTVKFPPEVTVTLPKSEIPPLSAGGSAGGSAGGS [r10_556_JUSTAS]	< -1
SAGGSAGGSAGVTDPNSSKPVPSSYVVVTVRGPEKESYYRVPPSEAAAFAAARGVEVILESAGGSAGGSAGG [r17_109_JUSTAS]	< -1
SAGGSAGGSAPNQRREVPFYIYFPDDGKMFPFKQEKDPDPPKLKLKLPPEDFPPIEIMPGGSAGGSAGGSAG [r3_454_TrROS]	< -1
SAGGSPPVPDDETVEIEVPDYKITFHPATQEVTVQTNDPAKAKAVIEALPYPIPYKNIKIVPPEKLSAGGSA [r2_418_JUSTAS]	< -1
SAGGSAGGSADPQKVKEIAEKLQEKGYTVDVDRGPDSWTIRVENPKSGGKKKHKIDDPEDVLSAGGSAGGSA [r18_278_TrROS]	< -1
SAGGMELKVVTLEATSGRREDAGLVPAALEEGARELALAHPELRILGADMEVEPLGEEYVARIPLVVGSAGG [r13_305_TrMRF]	< -1
SAGIRFRPGARIEWQNPDNGKKVEIRMREIRDRIQEINGNENPEQITAEQIQEWAREHGFRPIKIEPPSAGG [r19_67_TrROS]	< -1
SATLRDLIKELGFPMDIEHDGDSVKITMRNPDDPNPGQEQTFEIPPPNGKPLKFKIRMRNNGIQEIEPESAG [r14_401_TrROS]	< -1
SAGGSASSMVSSLPLKVDPKEKARAEAEKLAEEKLEEEPDLEGTVEVELEMETPDKKIKVRLEIKKSAGGSA [r15_729_JUSTAS]	< -1
SAGGSAGGSAGEIEIEFEPGEEFLDFIKNLPGPIESIEIEPIDPDKVRARLKLNIPEDLASAGGSAGGSAGG [r11_143_TrMRF]	< -1
SAGGSAGGSAGGGGKKKREISIMFEGGTPSDFKREAREIANSPENKDNVDEVEITMMPGSAGGSAGGSAGGS [r10_351_TrROS]	< -1
PDDPEEQREQMPPIPPEWAEELARKFAEKLGDEEVTEVEVDDITPNGYIEVEIENPDGGEVKIEIPMDDIMS [r1_435_TrROS]	< -1
SAGGSAGGMPESAPPVPLPTSTVPLSEARAAGIEVPPGSERVIRTPSGVTYRISSATGTVTVVGSAGGSAGG [r6_275_JUSTAS]	< -1
SAGGSAGGSSPSDTVTAELRYVLPDGTPVERTLSLTDLPSSVTPEDTLTLPGPGLRARILAVTGSAGGSAGG [r6_561_JUSTAS]	< -1
SAGGSAGGSVYYDESEDGVFVRVEGDGAPRVFPVADPEEARYRRIPTPDGRPVRVELRPSEEGSAGGSAGGS [r12_730_TrMRF]	< -1
SAGGSAGGSAAPKPVTVEKTIKVPGNDPEKVKKELEPKGWKVLGVDKNTVKAKITLPPGYKKSAGGSAGGSA [r18_168_JUSTAS]	< -1

Sequence	folding stability dG unfold [kcal/mol]
SAGGSAGGSGVKAILDALPPDYTVTVEEEPSGDSYTITVTHPDGASPTLRIDGGGRGELRKALSAGGSAGGS [r12_174_TrMRF]	-0.845 ± 0.74
SAGGSAGGSAGNEVRVDPDTNLLLVELSNGGRARVLLNEGVIYIEPEGTTFEDIEIEPAASAGGSAGGSAGG [r17_174_TrMRF]	< -1
SAGGSAGGSAGGKITEVDTSNNMVEITLKHPGGKRERPIDPGKTMAQILDELKENPDLVISAGGSAGGSAGG [r7_373_TrROS]	< -1
SAGGTELAERIRAMGGFEVVEIKEGEGKPKVTVRTPDPALAEELRAFLAADPRVESVELEELSPELKSAGGS [r16_671_JUSTAS]	< -1
SAGGSAGGSGFTVLEKDPSTGKVLVRLPPSLVEDVRRLPDVSPVAEEPDSVLLERTIPPGALASAGGSAGGS [r12_694_JUSTAS]	< -1
SAGGSAGGSANPMPVRFQIEWKNPKDGKKQKIPITGTIPDGNGKKHSINELLKNLPGFKIKPSAGGSAGGSA [r18_267_TrROS]	< -1
SAGGMTSTFRFSDSRGRLSVEKITPETGKVTVVEQGPSSPRRSTLNASPEEAFQQLKDANDFPASRLESAGG [r13_141_JUSTAS]	< -1
SAGGSALKPGQPVMIHVRLKIERPDPDGDEKKIPEIHIPVPVEEAKDIAEALPPNYKVKIDDISIMSAGGSA [r15_833_TrROS]	< -1
SAGGKNPEENDPEYQKPPKIPSRTIPFPAEQALAWAKELPGFDNIMVEAGGKWVEIDLDDGKIEPYGSAGGS [r16_214_TrROS]	< -1
SAGGSAGGSAGGWYRIKWPNGHEYPVKVDEIDPDGNIKVEPPNDEEHKFPADGMKIEPLPSAGGSAGGSAGG [r7_823_TrROS]	< -1
SAGGEKVPLKIRDPDNGNPHEFDKIESIDSVEMQKPPDNRQQYSIRFPGDGRPIMIDDPEDIEEALKSAGGS [r8_206_TrROS]	< -1
SAGGSAGGSAGGRVKKDVTVRYRLTVRNPVTGKTTERTLTVHVPVLVDEEAELPPLSEVSAGGSAGGSAGGS [r10_1026_TrMRF]	< -1
SAGGKIGQEVDPGEPITIPIVKRDGDNPKKEKINFRLPPGMRIRPKDDNIMIRFPGNGQEQTIPLKDLSAGG [r13_275_TrROS]	< -1
SAKAKVVEIKEENGKVIIKIEVEDENGNKKTIEIELPKDDIEIVEVDEDKIVIYNKKTGKKITLDLKDLSAG [r14_947_TrROS_Hall]	> 6
SAGGSAGGSAGRLPPGMKIRIWHRRDGKPRRREFEIPPGMPSIEDAAKEHPPIESVKIERSAGGSAGGSAGG [r11_157_TrROS]	< -1
SAGGSAGGSAGGPKEIPIKIKIYPPNGRKRERPVPLKSEEQALDQLQEAMPPGWFIEIWSAGGSAGGSAGGS [r10_145_TrROS]	< -1
SAGGSAGGSMEITVTLPPDQTAEDAIAALPSEYKNVTVLETSTTFPPTTDETPTVTLTIKVTKSAGGSAGGS [r12_822_JUSTAS]	< -1
SPKIKITEVEPNPGNMEKRTIELPNRPITLYWPPENGYYRVKIEDPDNNKERQIMVPPGQPPEEIAKDLLSA [r9_522_TrROS]	< -1
SAMVVPVELEGPVGDLDELKEKTKKEVEEELGLPDDLENITVTVEKIEPLPDPEGKPVTTRIKLKITVKSAG [r14_736_JUSTAS]	< -1
SAGGSAGGSEGKEVVVVPAVGVPPEAVRRALEPLGIRTRVVPVPPVRPFRAADPGRVYYTPVGSAGGSAGGS [r12_80_TrMRF]	< -1
SAGGSAGGSAGPPERTLSAIIAPNGEILNPIPVPEGAKVTVEPIPETGYYVATVTVPADVSAGGSAGGSAGG [r11_32_TrMRF]	< -1
SAGGSAYITIDDIKKLGPNMPIMVEPPKGRLMIFSPNQMVKITIDPDDDTIKVKEVFDSPEAMEKLSAGGSA [r15_6_TrROS]	< -1
